Assay [1] addresses T1, human TNFR2 on the surface of CHO-TNFR2 cells (human, UniProt P20333 23-461).
T1 construct: whole, on cells
T1 sequence (looked up): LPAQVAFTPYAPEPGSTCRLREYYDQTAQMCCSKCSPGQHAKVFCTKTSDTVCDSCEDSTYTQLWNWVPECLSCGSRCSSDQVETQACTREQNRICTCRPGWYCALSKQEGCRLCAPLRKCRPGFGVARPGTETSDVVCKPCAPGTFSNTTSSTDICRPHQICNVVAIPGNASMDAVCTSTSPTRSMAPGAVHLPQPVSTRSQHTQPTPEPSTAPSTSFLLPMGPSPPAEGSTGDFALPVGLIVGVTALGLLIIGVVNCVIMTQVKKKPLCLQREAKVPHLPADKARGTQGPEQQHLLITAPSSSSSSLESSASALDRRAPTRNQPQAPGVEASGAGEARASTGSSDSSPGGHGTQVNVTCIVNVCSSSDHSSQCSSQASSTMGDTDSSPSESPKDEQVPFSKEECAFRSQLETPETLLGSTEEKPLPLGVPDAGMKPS
The assay can be described thus: flow cytometry on CHO-TNFR2 cells; area under the MFI fold curve. The protocol: The transfected full-length plasmid of human TNFR2 was purchased from Sino Biological (Cat #HG10417-UT, NCBI Ref Seq: NM_001066.2). The experiment was conducted at a cell density within 80%. The cell medium was discarded; the cells were rinsed with PBS, and digested with 1 ml trypsin for 2 minutes; the digestion was stopped with a Ham's F12 complete medium containing 10% FBS, and then a cell suspension was made. The cell suspension was counted, and then an appropriate amount of cell suspension was centrifuged at 350×g; the supernatant was discarded; a corresponding volume of blocking solution (10% FBS+PBS) at a density of 1×10⁷ cells/ml was added to resuspend the cells, and the mixture was incubated at 4° C. for 30 minutes. After the incubation, the mixture was centrifuged at 350×g to remove the supernatant, and the cells were resuspended in a staining buffer (2% FBS+PBS) to a density of 2×10⁶ cells/ml, and spread onto a 96-well plate, with 50 μl of cell suspension added to each well for later use. The antibody was diluted with PBS for 10-fold gradient dilution from the highest concentration of 20 μg/m (twice the concentration); the diluted antibody was added to the well containing 50 μl of cell suspension, and placed on a microplate shaker for shaking at 500 rpm for 1 minute, so that the antibody was fully mixed with the cells; the mixture was incubated at 4° C. for 1 h. After the incubation, the cells were washed twice with the staining buffer, with 100 μl per well, and centrifuged at 350-g for 5 minutes, and the supernatant was discarded. The PE goat anti-Human IgG Fc antibody (ebioscience, Cat #12-4998-82) was diluted 250-fold with the staining buffer, with a volume of 100 μl per well added to the washed cell wells; the mixture was mixed evenly, and stained at 4° C. for 30 minutes. After the staining, similarly, the cells were washed twice with the staining buffer; finally, the cells were resuspended in 200 μl of staining buffer; signals were detected by a flow cytometer (Thermo Attune NxT). The stronger the signal, the stronger the binding ability of an antibody to TNFR2. The binding curve of an antibody was drawn with antibody concentration as the abscissa and corresponding mean fluorescence intensity (MFI) fold as the ordinate, and fitted with four parameters (GraphPad Prism9) to calculate the EC50 value.

The target of assay [2] is T1, human TNFR2 on the surface of CHO-TNFR2 …. The assay can be described thus: competition flow cytometry on CHO-TNFR2 cells, competitor human TNFα-biotin. The protocol: CHO stable cells highly expressing human TNFR2 were used for the experiment (the same as CHO-TNFR2 in Example 4). The CHO-TNFR2 cells were digested, washed twice with DPBS, then stained with Live/Dead (L/D) (20 minutes at room temperature), and plated at a density of 1×10⁵ cells/50 μl/well. A test anti-TNFR2 antibody was diluted to 6 μg/ml with a staining buffer as the starting concentration: the antibody was subjected to 3.33-fold gradient dilution, with a total of 7 concentration points. The diluted antibody was added to the plated cells at 50 μl/well, and the mixture was mixed well by gentle pipetting, and incubated at 4° C. for 30 minutes. Then the diluted 100 ng/ml of human TNFα-biotin was added at 100 μl/well, and the mixture was mixed well by gentle pipetting, and then incubated at 4° C. for 30 minutes. The mixture was washed twice with a staining buffer, and then 0.12 μg/ml PE-streptavidin (BioLegend, Cat #405204) was added at 100 μl/well; the resulting mixture was incubated at 4° C. for 30 minutes. The mixture was washed twice with a staining buffer, and then 150 μl of staining buffer was added to resuspend the cells; signals were detected by a flow cytometer (Thermo Attune NxT). The inhibitory curve of an antibody was drawn with antibody concentration as the abscissa and corresponding MFI value as the ordinate, and fitted with four parameters (GraphPad Prism9) to calculate the IC50 value. The smaller the IC50 value, the stronger the ability of an antibody to inhibit the binding of human TNFα to human TNFR2. The blocking effect of a humanized antibody was normalized to its corresponding human-murine chimeric WT antibody. The higher the percentage value, the better the inhibitory effect of the humanized antibody.
(In general: A flow cytometer gives signals particle by particle.)

The text below walks through data of patent US20240109974A1 (SHANDONG SIMCERE BIOPHARMACEUTICAL, published 2024).

B1: 224-WT (antibody, V domains shown)
VH: EVQLQESGPEIVKPGASVKLSCTASGFNNKDIYMHWVKQRPEQGLEWIGRIDPATGNTKHDPKFQDKATLSSDTSSNTAYLQFSSLTSEDTAVYYCAHSPYGDFGAMDYWGQGTTVTVSS
VL: DIQMTQSPAIMSASLGERVTMTCTASSSVSSNYLHWYQQKPGSSPKLWIYSTSNLPSGVPARFSGSGSGTSYSLTISSMEAEDAATYYCHQYHRSPWTFGGGTKLEIK
notes: Human-murine chimeric wild-type molecule; also called human-murine chimeric antibody WT of #224
B1: the AUC in assay [1] was 667.

B2: 219-WT (antibody, V domains shown)
VH: EVQLQESGAELVRPGASVKLSCKASGYSFTNYWMNWVKQRPGQGLEWIGMIHPSDTETRLNQNFKDKATLTVDKSSSTSYMQLSSPTSEDSAVYYCARGEGLGAARSVSMDYWGQGTTVTVSS
VL: DILMTQSPSSLSASLGDRVTISCRASQDISNYLNWYQQKPDGTVKVLIYYTAILHSGVPSRFSGSGSGTDYSLTISNLEQEDIATYFCQQGNTLPWTFGGGTKLEIK
notes: Human-murine chimeric wild-type molecule
On to B2, for which the AUC in assay [1] is 516.

B3: 219-Hu3 (antibody, V domains shown)
VH: QVQLVQSGAEVKKPGSSVKVSCKASGYSFTNYWMNWVRQAPGQGLEWMGMIHPSDTETRLNQNFKDRVTITADKSTSTAYMELSSLRSEDTAVYYCARGEGLGAARSVSMDYWGQGTLVTVSS
VL: DIQMTQSPSSLSASVGDRVTITCRASQDISNYLNWYQQKPDGTVKLLIYYTAILHSGVPSRFSGSGSGTDYSLTISSLQPEDFATYFCQQGNTLPWTFGQGTKVEIK
notes: also called VH5 + VL5
In turn, B3 gave an AUC in assay [1] of 497. For the same molecule, the IC50 – broadly, the concentration that inhibits the measured activity by half – in assay [2] was 0.042 µg/mL.

B4: 219-Hu2 (antibody, V domains shown)
VH: QVQLVQSGAEVKKPGSSVKVSCKASGYSFTNYWMNWVRQAPGQGLEWMGMIHPSDTETRLNQNFKDKATITADKSTSTAYMELSSLRSEDTAVYYCARGEGLGAARSVSMDYWGQGTLVTVSS
VL: DIQMTQSPSSLSASVGDRVTITCRASQDISNYLNWYQQKPDGTVKLLIYYTAILHSGVPSRFSGSGSGTDYSLTISSLQPEDFATYFCQQGNTLPWTFGQGTKVEIK
notes: also called VH4 + VL5
For B4, the AUC in assay [1] stood at 534. In assay [2], this molecule showed an IC50 of 0.039 µg/mL.

B5: 219-Hu5 (antibody, V domains shown)
VH: QVQLVQSGAEVKKPGSSVKVSCKASGYSFTNYWMNWVRQAPGQGLEWMGMIHPSDTETRLNQNFKDRVTITVDKSTSTAYMELSSLRSEDTAVYYCARGEGLGAARSVSMDYWGQGTLVTVSS
VL: DIQMTQSPSSLSASVGDRVTITCRASQDISNYLNWYQQKPDGTVKLLIYYTAILHSGVPSRFSGSGSGTDYSLTISSLQPEDFATYFCQQGNTLPWTFGQGTKVEIK
notes: also called VH7 + VL5
In the case of B5, the AUC in assay [1] is 481. In addition, in assay [2], the IC50 turned out to be 0.039 µg/mL.

B6: 219-Hu4 (antibody, V domains shown)
VH: QVQLVQSGAEVKKPGSSVKVSCKASGYSFTNYWMNWVKQAPGQGLEWIGMIHPSDTETRLNQNFKDKATLTVDKSTSTAYMELSSLRSEDTAVYYCARGEGLGAARSVSMDYWGQGTLVTVSS
VL: DIQMTQSPSSLSASVGDRVTITCRASQDISNYLNWYQQKPDGTVKLLIYYTAILHSGVPSRFSGSGSGTDYSLTISSLQPEDFATYFCQQGNTLPWTFGQGTKVEIK
notes: also called VH6 + VL5
Take B6: in assay [1], the AUC amounted to 493. Also, in assay [2], the IC50 stood at 0.043 µg/mL.

B7: 219-Hu1 (antibody, V domains shown)
VH: QVQLVQSGAEVKKPGASVKVSCKASGYSFTNYWMNWVRQAPGQRLEWMGMIHPSDTETRLNQNFKDRVTITRDTSASTAYMELSSLRSEDTAVYYCARGEGLGAARSVSMDYWGQGTLVTVSS
VL: DIQMTQSPSSLSASVGDRVTITCRASQDISNYLNWYQQKPDGTVKLLIYYTAILHSGVPSRFSGSGSGTDYSLTISSLQPEDFATYFCQQGNTLPWTFGQGTKVEIK
notes: also called VH3 + VL5
B7 showed an AUC in assay [1] of 565. For the same molecule, the IC50 in assay [2] was 0.047 µg/mL.

B8: 001-WT (antibody, V domains shown)
VH: EVQLQESGGGLVQPGGSLNLSCAASGFAFSTYDLSWVRQTPEKRLEWVAYINNGGISTYYSDTVKGRFTISRDNAKNTLYLQMSSLKSEDTAMYYCVRGPFYGSANYFDYWGQGTTVTVSS
VL: EIVMTQSPASLSLSVGETVTITCRTSESIYSNLPWYQQKQGKSPQLLVYDATKLAEGVPSRFSGSESGTQYSLKINSLQSEDFGTYYCQHFWVTPWTFGGGTKLEIK
notes: Human-murine chimeric wild-type molecule; also called human-murine chimeric antibody WT of #001
B8 returned an AUC in assay [1] of 490.

B9: 001-Hu5 (antibody, V domains shown)
VH: EVQLVESGGGLVQPGGSLRLSCAASGFAFSTYDLSWVRQAPGKGLEWVAYINNGGISTYYSDTVKGRFTISRDNAKNTLYLQMNSLRAEDTAVYYCVRGPFYGSANYFDYWGQGTLVTVSS
VL: DIQMTQSPSSLSASVGDRVTITCRTSESIYSNLPWYQQKPGKSPKLLVYDATKLAEGVPSRFSGSGSGTDYTLTISSLQPEDFATYYCQHFWVTPWTFGQGTKVEIK
notes: Humanized form of #001; also called VH1 + VL4
Regarding B9, the AUC in assay [1] stood at 431. The IC50 in assay [2] was determined as 0.093 µg/mL.

B10: 001-Hu4 (antibody, V domains shown)
VH: EVQLVESGGGLVQPGGSLRLSCAASGFAFSTYDLSWVRQAPGKGLEWVAYINNGGISTYYSDTVKGRFTISRDNAKNSLYLQMNSLRAEDTAVYYCVRGPFYGSANYFDYWGQGTLVTVSS
VL: DIQMTQSPSSLSASVGDRVTITCRTSESIYSNLPWYQQKPGKSPKLLVYDATKLAEGVPSRFSGSGSGTDYTLTISSLQPEDFATYYCQHFWVTPWTFGQGTKVEIK
notes: Humanized form of #001; also called VH2 + VL4
The molecule B10 returned an AUC in assay [1] of 452. Besides, the IC50 in assay [2] worked out at 0.087 µg/mL.

B11: 001-Hu3 (antibody, V domains shown)
VH: EVQLVESGGGLVQPGGSLRLSCAASGFAFSTYDLSWVRQAPGKGLEWVAYINNGGISTYYSDTVKGRFTISRDNAKNTLYLQMNSLRAEDTAVYYCVRGPFYGSANYFDYWGQGTLVTVSS
VL: DIQMTQSPSSLSASVGDRVTITCRTSESIYSNLPWYQQKPGKAPKLLIYDATKLAEGVPSRFSGSGSGTDYTLTISSLQPEDFATYYCQHFWVTPWTFGQGTKVEIK
notes: Humanized form of #001; also called VH1 + VL3
As to B11, in assay [1], the AUC was determined as 431. Moreover, the IC50 in assay [2] stood at 0.085 µg/mL.

B12: 001-Hu2 (antibody, V domains shown)
VH: EVQLVESGGGLVQPGGSLRLSCAASGFAFSTYDLSWVRQAPGKGLEWVAYINNGGISTYYSDTVKGRFTISRDNAKNSLYLQMNSLRAEDTAVYYCVRGPFYGSANYFDYWGQGTLVTVSS
VL: DIQMTQSPSSLSASVGDRVTITCRTSESIYSNLPWYQQKPGKSPKLLIYDATKLAEGVPSRFSGSGSGTDFTLTISSLQPEDFATYYCQHFWVTPWTFGQGTKVEIK
notes: Humanized form of #001; also called VH2 + VL2
Regarding B12, the AUC in assay [1] came to 433. This molecule gave an IC50 in assay [2] of 0.101 µg/mL.

B13: 001-Hu1 (antibody, V domains shown)
VH: EVQLVESGGGLVQPGGSLRLSCAASGFAFSTYDLSWVRQAPGKGLEWVAYINNGGISTYYSDTVKGRFTISRDNAKNTLYLQMNSLRAEDTAVYYCVRGPFYGSANYFDYWGQGTLVTVSS
VL: DIQMTQSPSSLSASVGDRVTITCRTSESIYSNLPWYQQKPGKAPKLLLYDATKLAEGVPSRFSGSGSGTDYTLTISSLQPEDFATYYCQHFWVTPWTFGQGTKVEIK
notes: Humanized form of #001; also called VH1 + VL1
B13 gave an AUC in assay [1] of 458. The IC50 in assay [2] came out at 0.087 µg/mL.
